Measured values as given in patent US20230287125A1 (LEPU BIOPHARMA, published 2023).

Legend:
rat PD-L1 protein = rat PD-L1 protein (rat, UniProt D4AE25 19-239); assay: ELISA, coated rat PD-L1
[1] = biological target: T1, human PD-L1 over-expressed on CHOK1 cells (human, UniProt Q9NZQ7 19-290); assay: flow cytometry on PDL1-CHOK1 cells
T1 construct: whole, on cells; also called PDL1-CHOK1 cells
Procedure: After washing by PBS, Alexa Fluor® 647 AffiniPure Goat Anti-Human IgG (H+L) was added to each well and incubated at 4° C. for 30 mins. Samples were washed twice with FACS buffer. The mean florescence intensity (MFI) of Alexa Fluor® 647 was evaluated by FACSCanto.

cynomolgus PD-L1 protein = cynomolgus PD-L1 protein (cynomolgus, UniProt G7PSE7 19-238); assay: ELISA, coated cynomolgus PD-L1
human PD-L1-Fc protein [2] = biological target: T2, human PD-L1-Fc protein (human, UniProt Q9NZQ7 19-238); assay: competition ELISA, coated human PD-L1-Fc, biotin-labeled human PD-1-Fc as competitor
T2 construct: coating antigen of the ELISAs; also called rhPD-L1-Fc; not shown: Fc
Procedure: (§1) Briefly, microtiter plates were coated with human PD-L1-Fc protein at 0.5 μg/ml in PBS, 100 μl/well at 4° C. overnight, then blocked with 150 μl/well of 1% BSA. […] The plates were washed with PBS/Tween and then incubated with Streptavidin-HRP for 10 mins at 37° C. After washing, the plates were developed with TMB substrate and analyzed by spectrophotometer at OD 450 nm.

human PD-L1-Fc protein [3] = biological target: T2, human PD-L1-Fc protein; assay: ELISA, antibody titrated on coated human PD-L1-Fc, OD 450nm; upper left panel (with Hu67F3G7-1 to -6)
Procedure: (§2) To evaluate antigen binding activity, the humanized antibodies were subjected to ELISA test. Briefly, microtiter plates were coated with human PD-L1-Fc protein at 0.5 μg/ml in PBS, 100 μl/well at 4° C. overnight, then blocked with 200 μl/well of 1% BSA. Three-fold dilutions of humanized antibodies starting from 10 μg/ml were added to each well and incubated for 1 hour at 37° C. The plates were washed with PBS/Tween and then incubated with mouse-anti-human IgG Fab antibody conjugated with Horse Radish Peroxidase (HRP) for 1 hour at 37° C. After washing, the plates were developed with TMB substrate and analyzed by spectrophotometer at OD 450 nm.

human PD-L1-Fc protein [4] = biological target: T2, human PD-L1-Fc protein; assay: ELISA, antibody titrated on coated human PD-L1-Fc, OD 450nm; upper right panel (with Hu67F3G7-7 to -12)
Procedure: as §2

human PD-L1-Fc protein [5] = biological target: T2, human PD-L1-Fc protein; assay: ELISA, antibody titrated on coated human PD-L1-Fc, OD 450nm; lower right panel (with Hu67F3G7-19 to -22)
Procedure: as §2

human PD-L1-Fc protein [6] = biological target: T2, human PD-L1-Fc protein; assay: receptor blocking ELISA: coated human PD-L1-Fc, blocked ligand biotin-labeled human CD80-Fc (Bio-CD80), OD 450nm; panel with Hu67F3G7-22 [cont'd]
Procedure: as §1, with “BSA at 37° C. for 2 hours.” for “BSA.”

human PD-L1-Fc protein [7] = biological target: T2, human PD-L1-Fc protein; assay: receptor blocking ELISA: coated human PD-L1-Fc, blocked ligand biotin-labeled human PD-1-Fc (Bio-PD1), OD 450nm; upper left panel (with Hu67F3G7-2)
Procedure: as §1, with “BSA at 37° C. for 2 hours.” for “BSA.”

human PD-L1-Fc protein [8] = biological target: T2, human PD-L1-Fc protein; assay: receptor blocking ELISA: coated human PD-L1-Fc, blocked ligand biotin-labeled human PD-1-Fc (Bio-PD1), OD 450nm; middle left panel (with Hu67F3G7-5)
Procedure: as §1, with “BSA at 37° C. for 2 hours.” for “BSA.”

human PD-L1-Fc protein [9] = biological target: T2, human PD-L1-Fc protein; assay: receptor blocking ELISA: coated human PD-L1-Fc, blocked ligand biotin-labeled human PD-1-Fc (Bio-PD1), OD 450nm; upper right panel (with Hu67F3G7-3)
Procedure: as §1, with “BSA at 37° C. for 2 hours.” for “BSA.”

human PD-L1-Fc protein [10] = biological target: T2, human PD-L1-Fc protein; assay: receptor blocking ELISA: coated human PD-L1-Fc, blocked ligand biotin-labeled human CD80-Fc (Bio-CD80), OD 450nm; upper left panel (with Hu67F3G7-2)
Procedure: as §1, with “BSA at 37° C. for 2 hours.” for “BSA.”

human PD-L1-Fc protein [11] = biological target: T2, human PD-L1-Fc protein; assay: receptor blocking ELISA: coated human PD-L1-Fc, blocked ligand biotin-labeled human CD80-Fc (Bio-CD80), OD 450nm; middle right panel (with Hu67F3G7-7)
Procedure: as §1, with “BSA at 37° C. for 2 hours.” for “BSA.”

human PD-L1-Fc protein [12] = biological target: T2, human PD-L1-Fc protein; assay: ELISA, antibody titrated on coated human PD-L1-Fc, OD 450nm; lower left panel (with Hu67F3G7-13 to -18); the table row is headed 'IC50' on the sheet although the curves rise
Procedure: as §2

T2 sequence (Q9NZQ7 19-238 limits assumed): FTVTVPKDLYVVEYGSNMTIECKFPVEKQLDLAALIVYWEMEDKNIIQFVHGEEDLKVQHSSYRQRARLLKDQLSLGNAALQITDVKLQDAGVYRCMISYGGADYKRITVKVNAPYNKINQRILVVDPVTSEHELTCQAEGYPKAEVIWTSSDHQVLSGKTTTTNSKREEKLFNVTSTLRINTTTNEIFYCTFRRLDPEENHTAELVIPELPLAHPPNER
T1 sequence (Q9NZQ7 19-290): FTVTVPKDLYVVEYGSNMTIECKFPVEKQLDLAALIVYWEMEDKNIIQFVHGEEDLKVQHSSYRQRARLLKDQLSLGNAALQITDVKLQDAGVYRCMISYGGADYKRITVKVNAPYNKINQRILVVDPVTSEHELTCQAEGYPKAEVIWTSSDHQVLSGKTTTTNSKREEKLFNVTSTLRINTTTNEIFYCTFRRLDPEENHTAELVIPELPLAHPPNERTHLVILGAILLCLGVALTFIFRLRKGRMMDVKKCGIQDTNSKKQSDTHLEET
Sequence of cynomolgus PD-L1 protein (G7PSE7 entry or part of it): as the sequence (Q9NZQ7 19-238 limits assumed) above, with A33T, A34S, S62N, R68Q, Q82R, F173L, T185A, T192I, H215L counted along it
Sequence of rat PD-L1 protein (D4AE25 entry or part of it limits assumed): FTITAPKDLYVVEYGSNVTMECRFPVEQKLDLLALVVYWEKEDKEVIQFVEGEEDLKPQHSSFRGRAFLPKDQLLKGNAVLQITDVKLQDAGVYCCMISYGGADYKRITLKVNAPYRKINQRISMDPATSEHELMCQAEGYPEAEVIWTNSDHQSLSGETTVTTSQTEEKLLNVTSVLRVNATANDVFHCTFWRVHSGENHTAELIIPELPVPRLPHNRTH

EC50 [1]: 0.103 nM | EC50 (cynomolgus PD-L1 protein): 0.0068 µg/mL | IC50 (human PD-L1-Fc protein [2]): 0.14 µg/mL | EC50 (human PD-L1-Fc protein [3]): 0.0141 µg/mL | EC50 (human PD-L1-Fc protein [4]): 0.0129 µg/mL | EC50 (human PD-L1-Fc protein [5]): 0.0147 µg/mL | IC50 (human PD-L1-Fc protein [6]): 0.293 µg/mL | IC50 (human PD-L1-Fc protein [7]): 0.149 µg/mL | IC50 (human PD-L1-Fc protein [8]): 0.149 µg/mL | IC50 (human PD-L1-Fc protein [9]): 0.136 µg/mL | IC50 (human PD-L1-Fc protein [10]): 0.256 µg/mL | IC50 (human PD-L1-Fc protein [11]): 0.283 µg/mL | EC50 (human PD-L1-Fc protein [12]): 0.0157 µg/mL
B1: 67F3G7 chimeric mAb (antibody, V domains shown)
VH: QVKLLQSGAALVKPGASVKMSCKASGYIFTDFWVSWVKQSHEKSLEWIGEIYPNSGVSRYNEKFKGRATMTVDKSTSTAYLELSRLTSEDSAIYYCTKYFGYTYWFGYWGQGTLVTVSS
VL: DTVLTQSPALAVSLGQRITISCRASKSVSTYMHWYQQRSGLQPKLLIYSASHLESGVPSRFSGSGSGTDFTLTIDPVEADDIANYYCQQSNELPVTFGSGTKLEIK
notes: chimeric mAb of the hybridoma clone; also called 67F3G7-chimera
binding result (rat PD-L1 protein): no binding (tested: dilutions starting from 10 µg/ml)
